Our source for the percent of cells in the StrepTactin-APC (APC-A) positive gate, percent STII (FITC-A) positive cells in the bead-retained fraction (Enrichment) and percent STII (FITC-A) positive cells in the column effluent values is patent publication US20170267756A1.

For assay [1], the target named is anti-CD19 T-ChARM^2 with 4-1BB/CD3ζ effector domain. As to the kind of experiment: flow cytometry of CD19-ChARM2 T cells; gated FSC/SSC, PI-negative, CD4+; StrepTactin-APC lot 5010-1015; gate from 10^3 on the APC-A axis [Continued].
Assay [2] has as its target anti-CD19 T-ChARM^3 with 4-1BB/CD3ζ effector domain. As to the kind of experiment: flow cytometry of CD19-ChARM3 T cells; gated FSC/SSC, PI-negative, CD4+; StrepTactin-APC lot 5010-1015; gate from 10^3 on the APC-A axis [Continued].
The target of assay [3] is anti-CD19 T-ChARM^2 with 4-1BB/CD3ζ effector domain. The experiment in a line: flow cytometry of CD19-ChARM2 T cells; gated FSC/SSC, PI-negative, CD4+; StrepTactin-APC lot 5010-1018; gate from 10^3 on the APC-A axis [Continued].
In assay [4] the target is anti-CD19 T-ChARM^3 with 4-1BB/CD3ζ effector domain. As to the kind of experiment: flow cytometry of CD19-ChARM3 T cells; gated FSC/SSC, PI-negative, CD4+; StrepTactin-APC lot 5010-1018; gate from 10^3 on the APC-A axis [Continued].
Assay [5] concerns the target anti-CD19 CAR (short), IgG4 hinge only, 4-1BB/CD3ζ, no tag. The experiment in a line: flow cytometry of CD19(Short) CAR T cells (no tag, control); gated FSC/SSC, PI-negative, CD4+; StrepTactin-APC lot 5010-1015; gate from 10^3 on the APC-A axis [Continued].
For assay [6] the target is unchanged. The experiment in a line: flow cytometry of CD19(Short) CAR T cells (no tag, control); gated FSC/SSC, PI-negative, CD4+; StrepTactin-APC lot 5010-1018; gate from 10^3 on the APC-A axis [Continued].
For assay [7], the target named is anti-CD19 T-ChARM^3 with 4-1BB/CD3ζ effector domain. The experiment in a line: immunomagnetic selection on a MACS column of T-ChARM3 T cells mixed with control T cells with StrepTactin Nanobeads 3#; retained fraction stained with anti-Strep tag-FITC, flow cytometry; 30.2 before enrichment [Continued].
Assay [8] has the same target. As to the kind of experiment: immunomagnetic selection on a MACS column of T-ChARM3 T cells mixed with control T cells with StrepTactin Microbeads 1#; retained fraction stained with anti-Strep tag-FITC, flow cytometry; 30.2 before enrichment [Continued].
Assay [9] has the same target. The experiment in a line: immunomagnetic selection on a MACS column of T-ChARM3 T cells mixed with control T cells with StrepTactin Microbeads 2#; retained fraction stained with anti-Strep tag-FITC, flow cytometry; 30.2 before enrichment [Continued].
The target is the same in assay [10]. The experiment in a line: immunomagnetic selection on a MACS column of T-ChARM3 T cells mixed with control T cells with StrepTactin Microbeads 1#; effluent (not retained) stained with anti-Strep tag-FITC, flow cytometry; 30.2 before enrichment [Continued].

Consider Strep-Tactin, for which the percent of cells in the StrepTactin-APC (APC-A) positive gate in assay [1] was 92%; in assay [2] it was 94.7%; in assay [3], 93.5%; in assay [4], 96.5%; in [5], 18.1%; in assay [6], 24.9%. Also, the percent STII (FITC-A) positive cells in the bead-retained fraction (Enrichment) in assay [7] turned out to be 80.5%; in assay [8] it was 77.7%; in assay [9], 87%. The percent STII (FITC-A) positive cells in the column effluent in assay [10] was found to be 9.91%.
